Data published in patent US12276665B2, “Methods for screening and identifying agents that inhibit or modulate the nuclear egress complex of herpesviruses” (priority 2018, dated 2025).
Non-standard residues stand in square brackets, D forms with d. Residues, ends and D or L forms follow the SMILES beside them. *: point of attachment. Biotin = O=C1N[C@H]2[C@H](CS[C@H]2CCCCC(=O)*)N1; AEEA = NCCOCCOCC(=O)O

Experiments:
[1] = target: pUL50-pUL53 interaction (HCMV NEC) (Human cytomegalovirus, UniProt P16791); assay: competitive binding assay
Experimental: These experiments were designed to address the peptide-protein interactions for each virus, as well as the ability of the hook peptides and proteins to cross-interact with the groove proteins of the respective other virus.
After blocking with BSA plates were incubated with 50 μL/well of inhibitor solutions at different concentration ranges, and 50 μL/well of His-tagged pUL50 (0.16 μg/mL) and BFRF1 (5 μg/mL), respectively. His-tagged pUL50 and BFRF1 were detected and plates developed as described above. IC50-values were determined using the regression wizard of GraphPad Prism. All data points present means of duplicates. Inhibition was calculated according to the following formula: % Inhibition=[1−(Apeptide−Ablank1)/(A100%−Ablank2)]×100, in which “100%” is a sample without inhibitor, “blank1” is a sample without coated hook protein and “blank2” is a sample without coated hook protein and without inhibitor.

[2] = target: HCMV pUL53 (Human cytomegalovirus, UniProt P16794); conditions: 293T cells, transient transfection
Experimental: CoIP analyses were performed to investigate specific protein-protein interactions (Bannister and Kouzarides, 1996). To this end, 293T cells (5×10^6) were transfected with the plasmids coding for the proteins of interest. One day before CoIP, 50 mg/ml protein A sepharose or 25 μl of dynabeads Protein A were incubated with the appropriate antibody in 500 μl CoIP buffer at 4° C. overnight. Two or three dpt cells were harvested. Lysis was performed using 500 μl CoIP buffer containing protease inhibitors and PMSF on ice for 20 min, sonificated (20 impulses, 80%) and centrifuged (14000 rpm, 10 min, 4° C.). For expression controls 50 μl aliquots of each supernatant were taken and boiled in 50 μl 2× boiling mix for 10 min at 95° C. The antibody-loaded dynabeads or sepharose beads (washed three times with CoIP buffer) were incubated with the lysates for 1.5 h at 4° C. Thereafter, samples were washed with CoIP buffer five times, resuspended in 30 μl 2× boiling mix and boiled 10 min at 95° C. Separation and analyzation of protein complexes were performed using SDS-PAGE and Wb.
Protein samples obtained from CoIP or cell lysates were separated by SDS-PAGE and transferred to a nitrocellulose membrane by electroblotting (200-300 mA for 80 min). […] Finally, the membranes were washed again three times with PBSo over 30 min, shortly incubated within a freshly prepared ECL solution (10 ml ECL solution A, 100 μl ECL solution B and 3.1 μl H2O2) and the proteins were detected by the use of the FUJIFILM Luminescent Image Analyzer LAS-1000 (FUJIFILM Europe GmbH, Düsseldorf, Germany). […]
At three dpt, cells were lysed and HA-tagged proteins were precipitated using pAb-HA or a rabbit antibody Fc fragment as specificity control. […] Lysate controls taken prior to the IP and CoIP samples were subjected to standard Wb analysis and protein expression was analyzed using tag- or protein-specific antibodies.

[3] = target: pUL53 (Human cytomegalovirus, UniProt P16794); conditions: ratio of EC50 values
Experimental: Plates were washed four times with 0.01% Tween 20 in 0.1 M phosphate buffer pH 7.2 (300 μL/well) after each incubation step. […] All data points present means of duplicates.

[4] = test system: MCMV pM53; assay: coimmunoprecipitation (CoIP), proteins from transient transfection; format: binding; conditions: 293T cells
From the text: (§1) Two or three dpt cells were harvested.

[5] = target: T1, VZV Orf27 (Varicella-zoster virus, UniProt P09283); assay: as above; format: binding; conditions: 293T cells
T1 construct: expressed in transfected cells; host or cells: 293T
From the text: as §1

[6] = target: T2, EBV BFLF2 (Epstein-Barr virus, UniProt P0CK47); assay: as above; format: binding; conditions: 293T cells
T2 construct: expressed in transfected cells; host or cells: 293T
T2 sequence (P0CK47 whole entry, looked up): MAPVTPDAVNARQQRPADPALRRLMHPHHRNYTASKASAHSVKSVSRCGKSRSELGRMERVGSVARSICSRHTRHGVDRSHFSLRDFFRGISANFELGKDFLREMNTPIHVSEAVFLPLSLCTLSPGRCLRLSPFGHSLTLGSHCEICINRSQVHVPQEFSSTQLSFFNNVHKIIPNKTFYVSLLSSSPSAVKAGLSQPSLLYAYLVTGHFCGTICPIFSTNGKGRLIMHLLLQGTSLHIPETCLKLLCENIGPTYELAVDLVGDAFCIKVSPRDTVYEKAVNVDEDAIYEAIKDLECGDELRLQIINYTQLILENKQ
From the text: as §1

| Molecule | IC50 [1] [nM] | fold lower inhibitory activity than the HCMV counterpart (hook protein or hook peptide) ([1]; ratio of IC50 values) | CoIP interaction with HCMV pUL53 [2] | fold stronger interaction than the BFRF1-BFLF2 interaction of EBV [3] | CoIP interaction with MCMVpM53 [4] | CoIP interaction with VZV Orf27 [5] | CoIP interaction with EBV BFLF2 [6] |
| --- | --- | --- | --- | --- | --- | --- | --- |
| CC[C@H](C)[C@H](NC(=O)CNC(=O)[C@H](CCCNC(=N)N)NC(=O)[C@H](Cc1ccccc1)NC(=O)[C@H](Cc1ccccc1)NC(=O)[C@H](CC(=O)O)NC(=O)[C@H](CCCNC(=N)N)NC(=O)[C@H](CC(C)C)NC(=O)[C@H](CO)NC(=O)[C@H](Cc1ccccc1)NC(=O)[C@H](Cc1c[nH]cn1)NC(=O)[C@H](CO)NC(C)=O)C(=O)N[C@@H](CO)C(=O)N[C@@H](C)C(=O)N[C@@H](CC(N)=O)C(=O)N[C@@H](Cc1ccccc1)C(=O)N[C@@H](CCC(=O)O)C(=O)N[C@@H](CC(C)C)C(=O)NCC(=O)N[C@@H](CCCCN)C(=O)N[C@@H](CC(=O)O)C(=O)N[C@@H](Cc1ccccc1)C(=O)N[C@@H](CC(C)C)C(=O)N[C@@H](CCCNC(=N)N)C(=O)N[C@@H](CCC(=O)O)C(=O)N[C@@H](CCSC)C(=O)N[C@@H](CC(N)=O)C(=O)N[C@H](C(=O)N1CCC[C@H]1C(=O)NCCOCCOCC(=O)N[C@@H](CCCCNC(=O)CCCC[C@@H]1SC[C@@H]2NC(=O)N[C@@H]21)C(N)=O)[C@@H](C)O [EBV hook peptide] (Ac-SHFSLRDFFRGISANFELGKDFLREMNTP[AEEA]K(Biotin)-NH2) | 2600 | approximately 22 fold |  |  |  |  |  |
| CC[C@H](C)[C@H](NC(=O)[C@H](C)NC(=O)[C@H](CCSC)NC(=O)[C@H](CCCCN)NC(=O)[C@H](CCSC)NC(=O)[C@H](CCSC)NC(=O)[C@H](CC(N)=O)NC(=O)[C@H](CC(C)C)NC(=O)[C@H](Cc1ccc(O)cc1)NC(=O)[C@H](CCCCN)NC(=O)[C@H](CC(C)C)NC(=O)[C@H](CCC(=O)O)NC(=O)[C@H](CC(C)C)NC(=O)[C@H](CCC(=O)O)NC(=O)[C@@H]1CCCN1C(=O)[C@H](Cc1c[nH]cn1)NC(=O)[C@H](CCC(=O)O)NC(=O)[C@H](CCCNC(=N)N)NC(=O)[C@H](Cc1ccccc1)NC(=O)[C@@H](NC(=O)[C@H](CC(=O)O)NC(=O)[C@H](Cc1c[nH]cn1)NC(=O)[C@H](CC(C)C)NC(=O)[C@H](CC(=O)O)NC(=O)[C@H](Cc1c[nH]cn1)NC(=O)[C@H](CC(C)C)NC(=O)[C@@H](NC(=O)[C@H](CC(C)C)NC(C)=O)[C@@H](C)O)[C@@H](C)CC)C(=O)N[C@H](C(=O)NCCOCCOCC(=O)N[C@@H](CCCCNC(=O)CCCC[C@@H]1SC[C@@H]2NC(=O)N[C@@H]21)C(N)=O)[C@@H](C)O [HCMV hook peptide] | 114 |  |  |  |  |  |  |
| pUL50: HCMV groove protein of the core NEC; His-tagged in ELISA, HA-tagged in CoIP |  |  | + | approximately 20 fold | + | − | − |
| MCMV pM50: MCMV core NEC protein, HA-tagged, transiently expressed (protein, Mouse cytomegalovirus 1, MCMV core NEC protein, HA-tagged, transiently expressed) MEIDKNVGADLISNTRRILRLDENELRITDTALICKNPNYSLCDAMLTTDIVYPVEYLLSYWECRSGRTACFVFKNTGCRVSLSCYIGFPERLKDLKRVCDFNFLSVNEALVVTLADIERIKPCDKGVLTNCVVRKSNSGMSYNIEVVAFGPDNEAEYQALLRDIYARRMTSVPTDCGSLICRRARCLAAAPPRRPPPPPPPGQRWGSLRKHGPVLTRRYAGGGGAAKNQPAAASPTSTSTSSPAAPSRDQDQTQRPPPAGDTNVTAAETTYSERTISFLTRHANAIHCALILAAAIALVLLWLLYWHAARSAGHP |  |  | + |  | + |  | − |
| BFRF1: EBV groove protein of the core NEC; His-tagged in ELISA, HA-tagged in CoIP (protein, Human herpesvirus 4, EBV groove protein of the core NEC; His-tagged in ELISA, HA-tagged in CoIP) MASPEERLLDELNNVIVSFLCDSGSLEVERCSGAHVFSRGSSQPLCTVKLRHGQIYHLEFVYKFLAFKLKNCNYPSSPVFVISNNGLATTLRCFLHEPSGLRSGQSGPCLGLSTDVDLPKNSIIMLGQDDFIKFKSPLVFPAELDLLKSMVVCRAYITEHRTTMQFLVFQAANAQKASRVMDMISDMSQQLSRSGQVEDTGARVTGGGGPRPGVTHSGCLGDSHVRGRGGWDLDNFSEAETEDEASYAPWRDKDSWSESEAAPWKKELVRHPIRRHRTRETRRMRGSHSRVEHVPPETRETVVGGAWRYSWRATPYLARVLAVTAVALLLMFLRWT |  |  | − |  |  |  | + |
